{
  "source": "paper PMC7105138",
  "about": "“Modeling cancer genomic data in yeast reveals selection against ATM function during tumorigenesis” (PLoS Genetics, 2020)",
  "experiment_in_all_cases": "EMSA",
  "details_in_all_cases": "ATP, 5 mM Mg2+, 150 mM NaCl; 25 mM Tris-Cl pH 7.6, 150 mM NaCl (also 50, 250, 300 mM), 7.5% glycerol, 1 mM beta-mercaptoethanol, 0.125% Igepal, 5 mM MgCl2, with or without 5 mM ATP; 5 nM …",
  "key": {"[1]": {"test_system": "Rad50-D67N (Saccharomyces cerevisiae)"}, "[2]": {"test_system": "Rad50-D67Y (Saccharomyces cerevisiae)"}, "[3]": {"test_system": "Rad50-L1240F (Saccharomyces cerevisiae)"}, "[4]": {"test_system": "Rad50-L1240F-I23V (Saccharomyces cerevisiae)"}},
  "data": [
    {"substance": "83-mer dsDNA oligonucleotide", "values": [
      {"measurement": "Kd", "setting": "[1]", "value": 200, "unit": "nM"},
      {"measurement": "Kd", "setting": "[2]", "value": 320, "unit": "nM"},
      {"measurement": "Kd", "setting": "[3]", "value": "> 800", "unit": "nM"},
      {"measurement": "Kd", "setting": "[4]", "value": "> 800", "unit": "nM"}
    ]}
  ]
}
